Assay results published in patent publication US8734776B2 (ZymoGenetics, Inc., priority 2003, dated 2014).
Like-named read-outs stand apart in the source and are kept apart here.

Columns and labels:
[1] = test system: coxsackie virus; assay type: cell-based; conditions: Coxsackie B4 virus, KB cells
[2] = test system: rhino virus; assay type: cell-based
[3] = test system: respiratory syncytial virus; assay type: cell-based; conditions: MA-104 cells
[4] = test system: vaccinia virus; assay type: cell-based; conditions: Vero cells
[5] = test system: parainfluenza virus; assay type: cell-based; conditions: MA-104 cells
[6] = test system: dengue virus; assay type: cell-based; conditions: Vero cells
[7] = test system: adenoviral vector, AdGFP; assay: Adenoviral (AdGFP) liver pathology in mice; assay type: in vivo, mouse; conditions: C57Bl/6 mice
Description: When injected intravenously, these viruses primarily target the liver for gene expression. The adenoviruses are replication deficient, but cause liver damage due to inflammatory cell infiltrate that can be monitored by measurement of serum levels of liver enzymes like AST and ALT, or by direct examination of liver pathology.
C57B116 mice were given once daily intraperitoneal injections of 50 μg mouse IL-28 (zcyto24 as shown in SEQ ID NO:8) or metIL-29C172S—PEG for 3 days. Control animals were injected with PBS. One hour following the 3rd dose, mice were given a single bolus intravenous tail vein injection of the adenoviral vector, AdGFP (1×10^9 plaque-forming units (pfu)). Following this, every other day mice were given an additional dose of PBS, mouse IL-28 or metIL-29C172S—PEG for 4 more doses (total of 7 doses). One hour following the final dose of PBS, mouse IL-28 or metIL-29C172S—PEG mice were terminally bleed and sacrificed. The serum and liver tissue were analyzed. Serum was analyzed for AST and ALT liver enzymes. Liver was isolated and analyzed for GFP expression and histology. For histology, liver specimens were fixed in formalin and then embedded in paraffin followed by H&E staining. Sections of liver that had been blinded to treat were examined with a light microscope. Changes were noted and scored on a scale designed to measure liver pathology and inflammation.

[8] = test system: IL-28RA mRNA; assay: Semi-quantitative RT-PCR of IL-28RA, IFNAR2 and CRF2-4 mRNA; assay type: cell-based, human; conditions: HepG2 cells + cytokine
Description: In order to further examine the mRNA distribution for IL-28RA, semi-quantitative RT-PCR was performed using the SDS 7900HT system (Applied Biosystems, CA). One-step RT-PCR was performed using 100 ng total RNA for each sample and gene-specific primers. A standard curve was generated for each primer set using Bjab RNA and all sample values were normalized to HPRT. The normalized values for IFNAR2 and CRF2-4 are also shown.

[9] = test system: polio virus; assay type: cell-based; conditions: Vero cells
[10] = test system: polio virus; assay type: cell-based; conditions: Vero cells; remark: listed apart in the source
[11] = test system: adenovirus; assay type: cell-based; conditions: A549 cells
[12] = test system: adenovirus; assay type: cell-based; conditions: A549 cells; remark: listed apart in the source
[13] = test system: pichinde virus; assay type: cell-based

B1: IL-29: human IL-29, previously designated zcyto21, SEQ ID NO:4 (protein, listed as Homo sapiens)
chain: MAAAWTVVLVTLVLGLAVAGPVPTSKPTTTGKGCHIGRFKSLSPQELASFKKARDALEESLKLKNWSCSSPVFPGNWDLRLLQVRERPVALEAELALTLKVLEAAAGPALEDVLDQPLHTLHHILSQLQACIQPQPTAGPRPRGRLHHWLHRLQEAPKKESAGCLEASVTFNLFRLLTRDLKYVADGNLCLRTSTHPEST
modifications: SIGNAL (1)...(19)
Q: What does the source list for B1?
A: EC50 NR [1]: >10 µg/mL; IC50 NR [1]: >10 µg/mL; EC50 Visual ([2]; Rhino 2, KB cells): >10 µg/mL; IC50 Visual ([2]; Rhino 2, KB cells): >10 µg/mL; EC50 Visual ([2]; Rhino 9, HeLa cells): >10 µg/mL; IC50 Visual ([2]; Rhino 9, HeLa cells): >10 µg/mL; EC50 Visual [3]: >10 µg/mL; IC50 Visual [3]: >10 µg/mL; EC50 NR [4]: >10 µg/mL; IC50 NR [4]: >10 µg/mL; EC50 Visual [5]: >10 µg/mL; IC50 Visual [5]: >10 µg/mL; EC50 NR [6]: 0.05 µg/mL; IC50 NR [6]: >10 µg/mL; liver histology: liver and inflammation scores versus PBS-treated group [7]: lower liver and inflammation scores; liver histology: sinusoidal cells, mitotic figures, hepatocyte changes versus PBS treatment group [7]: less proliferation of sinusoidal cells, fewer mitotic figures and fewer changes in the hepatocytes; average serum AST ([7]; 50 μg i.p., 7 doses, n=8): 162 U/L; serum ALT ([7]; 50 μg i.p., 7 doses, n=8): 184 U/L; CRF2-4 mRNA normalized to HPRT [8]: 3.01; IFNAR2 mRNA normalized to HPRT [8]: 2.53; IL-28RA mRNA normalized to HPRT [8]: 2.28; EC50 NR [9]: >10 µg/mL; IC50 NR [9]: >10 µg/mL; EC50 Visual [10]: >10 µg/mL; IC50 Visual [10]: >10 µg/mL; EC50 NR [11]: >10 µg/mL; IC50 NR [11]: >10 µg/mL; EC50 Visual [12]: >10 µg/mL; IC50 Visual [12]: >10 µg/mL; EC50 NR [13]: >10 µg/mL; IC50 NR [13]: >10 µg/mL
